In patent US20190367620A1 (Merck KGaA, published 2019):

How the values were obtained:
[1] = molecular target: T1, human FGFR1b-IIIc extracellular domain with a HIS tag (human, UniProt P11362 22-376); assay: ELISA, EC50 from OD450 curves, monovalent SEEDbody format
T1 construct: also called huFGFR1b-IIIc; hFGFR1b-IIIc
T1 sequence: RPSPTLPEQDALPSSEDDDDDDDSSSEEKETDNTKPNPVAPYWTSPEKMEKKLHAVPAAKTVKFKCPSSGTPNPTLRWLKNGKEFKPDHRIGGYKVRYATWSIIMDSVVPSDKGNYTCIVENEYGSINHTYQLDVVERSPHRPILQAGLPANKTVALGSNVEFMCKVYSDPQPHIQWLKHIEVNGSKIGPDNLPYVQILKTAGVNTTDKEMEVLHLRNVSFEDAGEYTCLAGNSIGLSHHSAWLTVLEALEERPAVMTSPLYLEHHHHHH
Protocol: (§1) The binding selectivity of the antibodies were tested by ELISA against the different FGFR family members: FGFR1, FGFR2, FGFR3 and FGFR4. Briefly plates were coated overnight with the different His6-tagged FGFR proteins, after blocking with 1% Bovine Serum albumin, 1 or 0.1 μg/ml of anti-FGFR1 antibodies were incubated for 1 h at room temperature. After washing, the bound antibodies were incubated for 1 h at room temperature with a peroxidase affiniPure F(ab′)2 Fragment goat anti-human Fc (Jackson ImmunoResearch Laboratories #109-036-098) and detection was performed using the TMB HRP Substrate solution (BioFx Lab # TMBW-1000-01).
(§2) The antibody #A08 both as an IgG1 (bivalent) and as a SEEDbody (monovalent), was affinity matured using the yeast display technology described in (Rhiel et al. 2014) and performing light chain shuffling from immunized OmniRats and naïve human library followed by CDR-H3 parsimonious mutagenesis. Following several sorting rounds, yeast clones were picked, unique clones were reformatted as described in Examples 1.6 and 3.1. The binding affinities of the anti-FGFR1 molecules against human FGFR1b-IIIb) and human FGFR1b-IIIc) were measured by ELISA using a similar protocol as described in Example 1.9. The OD450 was plotted against the antibody concentration and GraphPad Prism software was used to calculate EC₅₀ values (see FIG. 10). […] The best results were obtained with mAb #A02 and #C01 showing an EC50 improvement in both IgG1 and SEEDbody formats.

[2] = molecular target: T2, human FGFR1b-IIIb extracellular domain with a HIS tag (human); assay: SPR (BIAcore), SEEDbody format; target IIIb by paragraph 74 and paragraph 125, the table's title says IIIc
T2 construct: also called huFGFR1b-IIIb; hFGFR1b-IIIb
T2 chain: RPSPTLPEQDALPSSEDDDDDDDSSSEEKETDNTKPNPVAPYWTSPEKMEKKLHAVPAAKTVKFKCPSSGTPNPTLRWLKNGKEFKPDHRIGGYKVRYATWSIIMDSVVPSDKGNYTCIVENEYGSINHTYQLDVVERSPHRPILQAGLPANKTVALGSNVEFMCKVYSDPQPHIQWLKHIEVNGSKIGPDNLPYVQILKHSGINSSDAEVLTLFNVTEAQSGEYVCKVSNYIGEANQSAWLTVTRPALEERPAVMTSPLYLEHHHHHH
Protocol: (§3) Binding affinities of anti-FGFR1 antibodies to FGFR1 were measured by Surface Plasmon Resonance (SPR) using a GE Healthcare BIAcore 4000 instrument as follows. Goat anti-human Fc antibody (Jackson ImmunoResearch Laboratories #109-005-098) was first immobilized on BIAcore carboxymethylated dextran CM5 chip using direct coupling to free amino groups following the procedure described by the manufacturer. Antibodies were then captured on the CM5 biosensor chip to achieve approximately 200 response units (RU). Binding measurements were performed using the running HBS-EP+ buffer. A 2-fold dilution series of His-tagged FGFR1 proteins were injected at a flow rate of 30 μl/min at 25° C. Association rates (kₒₙ, per mol/s) and dissociation rates (koff, per s) were calculated using a simple 1:1 Langmuir binding model (Biacore 4000 Evaluation Software). The equilibrium dissociation constant (KD, mol) was calculated as the ratio of koff/kₒₙ.
(§4) The affinities to human FGFR1b-IIIb for the affinity matured clones reformatted as IgG and monovalent SEEDbodies were measured by BIAcore (using a protocol similar to the one described in Example 1.8) and compared to those of mAb #08 (Table 5).

[3] = molecular target: T2, human FGFR1b-IIIb extracellular domain …; assay: ELISA, EC50 from OD450 curves, monovalent SEEDbody format
Protocol: as §1, §2

[4] = molecular target: T1, human FGFR1b-IIIc extracellular domain …; assay: ELISA, EC50 from OD450 curves, IgG1 format
Protocol: as §1
The antibody #A08 both as an IgG1 (bivalent) and as a SEEDbody (monovalent), was affinity matured using the yeast display technology described in (Rhiel et al. 2014) and performing light chain shuffling from immunized OmniRats and naïve human library followed by CDR-H3 parsimonious mutagenesis. Following several sorting rounds, yeast clones were picked, unique clones were reformatted as described in Examples 1.6 and 3.1. The binding affinities of the anti-FGFR1 molecules against human FGFR1b-IIIb) and human FGFR1b-IIIc) were measured by ELISA using a similar protocol as described in Example 1.9. The OD450 was plotted against the antibody concentration and GraphPad Prism software was used to calculate EC₅₀ values (see FIG. 10). […]

[5] = molecular target: T2, human FGFR1b-IIIb extracellular domain …; assay: SPR (BIAcore), IgG1 format; target IIIb by paragraph 74 and paragraph 125, the table's title says IIIc
Protocol: as §3, §4

Row | Binder | binding result [1] | Kd [5] [nM] | further results
1 | #D01 SEEDbody (monovalent) (antibody, also called #D01-SEED(AG)) heavy: QVQLQESGPGLVKPSGTLSLTCAVSGGSISSNNWWSWVRQPPGKGLEWIGEIYHSGSTSYNPSLKSRVTISVDKSKNQFSLKLSSVTAADTAVYYCARATDWFDHWGQGTLVTVSSASTKGPSVFPLAPSSKSTSGGTAALGCLVKDYFPEPVTVSWNSGALTSGVHTFPAVLQSSGLYSLSSVVTVPSSSLGTQTYICNVNHKPSNTKVDKRVEPKSCDKTHTCPPCPAPELLGGPSVFLFPPKPKDTLMISRTPEVTCVVVDVSHEDPEVKFNWYVDGVEVHNAKTKPREEQYNSTYRVVSVLTVLHQDWLNGKEYKCKVSNKALPAPIEKTISKAKGQPFRPEVHLLPPSREEMTKNQVSLTCLARGFYPKDIAVEWESNGQPENNYKTTPSRQEPSQGTTTFAVTSKLTVDKSRWQQGNVFSCSVMHEALHNHYTQKTISLSPG EPKSSDKTHTCPPCPAPELLGGPSVFLFPPKPKDTLMISRTPEVTCVVVDVSHEDPEVKFNWYVDGVEVHNAKTKPREEQYNSTYRVVSVLTVLHQDWLNGKEYKCKVSNKALPAPIEKTISKAKGQPREPQVYTLPPPSEELALNELVTLTCLVKGFYPSDIAVEWLQGSQELPREKYLTWAPVLDSDGSFFLYSILRVAAEDWKKGDTFSCSVMHEALHNHYTQKSLDRSPG light: SYVLTQPPSVSVAPGQTARITCGGNNIGSESVHWYQQKPGQAPVLVVYDDSDRPSGIPERFSGSNSGNTATLTISRVEAGDEADYYCQVWDSTSDHRVFGGGTKLTVLGQPKAAPSVTLFPPSSEELQANKATLVCLISDFYPGAVTVAWKADSSPVKAGVETTTPSKQSNNKYAASSYLSLTPEQWKSHKSYSCQVTHEGSTVEKTVAPTECS | binds | – | Kd [2]: 0.05 nM
2 | #D02 SEEDbody (monovalent) (antibody, also called #D02-SEED(AG)) heavy: QVQLQESGPGLVKPSGTLSLTCAVSGGSISSNNWWSWVRQPPGKGLEWIGEIYHSGSTSYNPSLKSRVTISVDKSKNQFSLKLSSVTAADTAVYYCARGTDWIDTWGQGTLVTVSSASTKGPSVFPLAPSSKSTSGGTAALGCLVKDYFPEPVTVSWNSGALTSGVHTFPAVLQSSGLYSLSSVVTVPSSSLGTQTYICNVNHKPSNTKVDKRVEPKSCDKTHTCPPCPAPELLGGPSVFLFPPKPKDTLMISRTPEVTCVVVDVSHEDPEVKFNWYVDGVEVHNAKTKPREEQYNSTYRVVSVLTVLHQDWLNGKEYKCKVSNKALPAPIEKTISKAKGQPFRPEVHLLPPSREEMTKNQVSLTCLARGFYPKDIAVEWESNGQPENNYKTTPSRQEPSQGTTTFAVTSKLTVDKSRWQQGNVFSCSVMHEALHNHYTQKTISLSPG EPKSSDKTHTCPPCPAPELLGGPSVFLFPPKPKDTLMISRTPEVTCVVVDVSHEDPEVKFNWYVDGVEVHNAKTKPREEQYNSTYRVVSVLTVLHQDWLNGKEYKCKVSNKALPAPIEKTISKAKGQPREPQVYTLPPPSEELALNELVTLTCLVKGFYPSDIAVEWLQGSQELPREKYLTWAPVLDSDGSFFLYSILRVAAEDWKKGDTFSCSVMHEALHNHYTQKSLDRSPG light: SYVLTQPPSVSVAPGQTARITCGGNNIGSESVHWYQQKPGQAPVLVVYDDSDRPSGIPERFSGSNSGNTATLTISRVEAGDEADYYCQVWDSTSDHRVFGGGTKLTVLGQPKAAPSVTLFPPSSEELQANKATLVCLISDFYPGAVTVAWKADSSPVKAGVETTTPSKQSNNKYAASSYLSLTPEQWKSHKSYSCQVTHEGSTVEKTVAPTECS | binds | – | binding result [3]: binds
3 | mAb #A02 IgG1 (antibody, V domains shown, constant regions not tied) VH: QVQLQESGPGLVKPSGTLSLTCAVSGGSISSNNWWSWVRQPPGKGLEWIGEIYHSGSTSYNPSLKSRVTISVDKSKNQFSLKLSSVTAADTAVYYCARATDWFDLWGQGTLVTVSS VL: SYVLTQPPSVSVAPGQTARITCGGNNIGSESVHWYQQKPGQAPVLVVYDDSDRPSGIPERFSGSNSGNTATLTISRVEAGDEADYYCQVWDSTSDHRVFGGGTKLTVL | – | 0.05 | binding result [4]: binds
4 | #A07 IgG1 (antibody, V domains shown, heavy constant region not tied) VH: QVQLQESGPGLVKPSGTLSLTCAVSGGSISSNNWWSWVRQPPGKGLEWIGEIYHSGSTSYNPSLKSRVTISVDKSKNQFSLKLSSVTAADTAVYYCARGTDWYDPWGQGTLVTVSS VL: SYVLTQPPSVSVAPGQTARITCGGNNIGSESVHWYQQKPGQAPVLVVYDDSDRPSGIPERFSGSNSGNTATLTISRVEAGDEADYYCQVWDSTSDHRVFGGGTKLTVLG | – | 0.06 | –
5 | #B10 IgG1 (antibody, V domains shown, heavy constant region not tied) VH: QVQLQESGPGLVKPSGTLSLTCAVSGGSISSNNWWSWVRQPPGKGLEWIGEIYHSGSTSYNPSLKSRVTISVDKSKNQFSLKLSSVTAADTAVYYCARATDWYDPWGQGTLVTVSS VL: SYVLTQPPSVSVAPGQTARITCGGNNIGSESVHWYQQKPGQAPVLVVYDDSDRPSGIPERFSGSNSGNTATLTISRVEAGDEADYYCQVWDSTSDHRVFGGGTKLTVLG | – | 0.02 | –

Further lines, with some results ahead:

Row | binding result [1] | Kd [5] [nM] | Binder | further results
6 | binds | – | SEEDbody #A07 (monovalent) (antibody, also called #A07-SEED(AG)) heavy: QVQLQESGPGLVKPSGTLSLTCAVSGGSISSNNWWSWVRQPPGKGLEWIGEIYHSGSTSYNPSLKSRVTISVDKSKNQFSLKLSSVTAADTAVYYCARGTDWYDPWGQGTLVTVSSASTKGPSVFPLAPSSKSTSGGTAALGCLVKDYFPEPVTVSWNSGALTSGVHTFPAVLQSSGLYSLSSVVTVPSSSLGTQTYICNVNHKPSNTKVDKRVEPKSCDKTHTCPPCPAPELLGGPSVFLFPPKPKDTLMISRTPEVTCVVVDVSHEDPEVKFNWYVDGVEVHNAKTKPREEQYNSTYRVVSVLTVLHQDWLNGKEYKCKVSNKALPAPIEKTISKAKGQPFRPEVHLLPPSREEMTKNQVSLTCLARGFYPKDIAVEWESNGQPENNYKTTPSRQEPSQGTTTFAVTSKLTVDKSRWQQGNVFSCSVMHEALHNHYTQKTISLSPG EPKSSDKTHTCPPCPAPELLGGPSVFLFPPKPKDTLMISRTPEVTCVVVDVSHEDPEVKFNWYVDGVEVHNAKTKPREEQYNSTYRVVSVLTVLHQDWLNGKEYKCKVSNKALPAPIEKTISKAKGQPREPQVYTLPPPSEELALNELVTLTCLVKGFYPSDIAVEWLQGSQELPREKYLTWAPVLDSDGSFFLYSILRVAAEDWKKGDTFSCSVMHEALHNHYTQKSLDRSPG light: SYVLTQPPSVSVAPGQTARITCGGNNIGSESVHWYQQKPGQAPVLVVYDDSDRPSGIPERFSGSNSGNTATLTISRVEAGDEADYYCQVWDSTSDHRVFGGGTKLTVLGQPKAAPSVTLFPPSSEELQANKATLVCLISDFYPGAVTVAWKADSSPVKAGVETTTPSKQSNNKYAASSYLSLTPEQWKSHKSYSCQVTHEGSTVEKTVAPTECS | Kd [2]: 0.04 nM
7 | – | 0.03 | mAb #C01 IgG1 (antibody, V domains shown, constant regions not tied) VH: QVQLQESGPGLVKPSGTLSLTCAVSGGSISSNNWWSWVRQPPGKGLEWIGEIYHSGSTSYNPSLKSRVTISVDKSKNQFSLKLSSVTAADTAVYYCARATDWFDAWGQGTLVTVSS VL: SYVLTQPPSVSVAPGQTARITCGGNNIGSESVHWYQQKPGQAPVLVVYDDSDRPSGIPERFSGSNSGNTATLTISRVEAGDEADYYCQVWDSTSDHRVFGGGTKLTVL | binding result [4]: binds
8 | – | 0.03 | mAb #D01 IgG1 (antibody, V domains shown, heavy constant region not tied) VH: QVQLQESGPGLVKPSGTLSLTCAVSGGSISSNNWWSWVRQPPGKGLEWIGEIYHSGSTSYNPSLKSRVTISVDKSKNQFSLKLSSVTAADTAVYYCARATDWFDHWGQGTLVTVSS VL: SYVLTQPPSVSVAPGQTARITCGGNNIGSESVHWYQQKPGQAPVLVVYDDSDRPSGIPERFSGSNSGNTATLTISRVEAGDEADYYCQVWDSTSDHRVFGGGTKLTVLG | –
